# Assay results as given in patent US20120219559A1 (Johns Hopkins, published 2012).
# T1: B7-H2Ig (Mus musculus, UniProt Q9JHJ8)
# T1 construct: Ig fusion protein purchased from R&D systems; also called mouse B7-H2Ig fusion protein
# T1 sequence (fusion protein, looked up): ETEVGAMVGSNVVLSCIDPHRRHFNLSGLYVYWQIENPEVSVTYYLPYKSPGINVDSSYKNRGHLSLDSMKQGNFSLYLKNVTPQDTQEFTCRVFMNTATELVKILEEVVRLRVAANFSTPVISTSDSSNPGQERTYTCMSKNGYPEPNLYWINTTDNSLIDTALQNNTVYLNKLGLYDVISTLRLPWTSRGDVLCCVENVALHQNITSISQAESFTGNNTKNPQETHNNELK
# T2: human B7-H2, full length, expressed on cells (B7-H2+293T cells) (human, UniProt O75144 19-302)
# T2 construct: This id also stands for endogenous B7-H2 on monocyte-derived dendritic cells in the functional rows; also called ICOSL; ICOSLG
# T2 sequence: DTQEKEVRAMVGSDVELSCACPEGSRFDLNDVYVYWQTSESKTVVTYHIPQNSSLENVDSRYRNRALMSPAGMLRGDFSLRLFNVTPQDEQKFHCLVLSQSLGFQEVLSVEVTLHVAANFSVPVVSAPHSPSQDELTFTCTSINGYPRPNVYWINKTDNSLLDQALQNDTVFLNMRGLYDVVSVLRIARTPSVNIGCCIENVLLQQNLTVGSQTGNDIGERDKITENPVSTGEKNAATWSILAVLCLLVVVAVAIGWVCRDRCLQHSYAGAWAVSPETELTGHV
# T3: human B7-DC expressed on 293T cells (human, UniProt Q9BQ51 20-273)
# T3 construct: whole, on cells
# T3 sequence (looked up): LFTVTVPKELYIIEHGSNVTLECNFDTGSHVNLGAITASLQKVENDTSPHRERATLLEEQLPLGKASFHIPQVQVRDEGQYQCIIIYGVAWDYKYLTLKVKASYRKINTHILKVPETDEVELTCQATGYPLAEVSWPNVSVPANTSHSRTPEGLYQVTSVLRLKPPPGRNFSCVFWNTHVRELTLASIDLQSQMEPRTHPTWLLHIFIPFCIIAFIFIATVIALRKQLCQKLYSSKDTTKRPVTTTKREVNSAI
# T4: human B7-2 (CD86, B70) expressed on 293T cells (human, UniProt P42081 24-329)
# T4 construct: whole, on cells
# T4 sequence (looked up): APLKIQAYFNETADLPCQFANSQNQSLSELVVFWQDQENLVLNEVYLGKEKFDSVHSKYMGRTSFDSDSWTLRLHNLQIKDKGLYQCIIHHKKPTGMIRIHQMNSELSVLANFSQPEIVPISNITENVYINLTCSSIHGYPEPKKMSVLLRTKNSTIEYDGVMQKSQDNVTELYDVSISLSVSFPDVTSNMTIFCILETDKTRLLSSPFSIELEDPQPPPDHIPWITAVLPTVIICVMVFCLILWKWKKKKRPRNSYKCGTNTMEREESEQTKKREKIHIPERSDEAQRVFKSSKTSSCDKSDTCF
# T5: human B7-1 (CD80) expressed on 293T cells (human, UniProt P33681 35-288)
# T5 construct: whole, on cells
# T5 sequence (looked up): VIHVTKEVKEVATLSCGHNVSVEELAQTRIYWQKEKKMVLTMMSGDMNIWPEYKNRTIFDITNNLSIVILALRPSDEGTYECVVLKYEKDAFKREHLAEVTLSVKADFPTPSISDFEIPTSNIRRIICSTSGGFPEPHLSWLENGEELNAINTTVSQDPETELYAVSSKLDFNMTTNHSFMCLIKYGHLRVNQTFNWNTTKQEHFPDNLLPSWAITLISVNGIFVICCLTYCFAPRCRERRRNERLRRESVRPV
# T6: mouse CD28Ig fusion protein (mouse, UniProt P31041 20-149)
# T6 construct: Bought from R&D Systems; Ig (Fc) part not given
# T6 sequence (looked up): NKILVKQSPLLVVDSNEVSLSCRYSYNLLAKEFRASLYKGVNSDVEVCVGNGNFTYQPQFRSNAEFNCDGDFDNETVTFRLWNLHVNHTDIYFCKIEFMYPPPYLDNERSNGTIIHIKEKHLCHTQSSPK
# T7: ICOSIg (Mus musculus, UniProt Q9WVS0)
# T7 construct: Ig fusion protein purchased from R&D systems; also called mouse ICOSIg fusion protein
# T7 sequence (fusion protein, looked up): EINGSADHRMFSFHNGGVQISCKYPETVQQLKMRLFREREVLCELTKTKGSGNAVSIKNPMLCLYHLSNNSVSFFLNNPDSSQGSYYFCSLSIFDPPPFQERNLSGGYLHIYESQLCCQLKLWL
# T8: B7-DCIg (Mus musculus, UniProt Q9WUL5)
# T8 construct: Ig fusion protein purchased from R&D systems; also called mouse B7-DCIg fusion protein
# T8 sequence (fusion protein, looked up): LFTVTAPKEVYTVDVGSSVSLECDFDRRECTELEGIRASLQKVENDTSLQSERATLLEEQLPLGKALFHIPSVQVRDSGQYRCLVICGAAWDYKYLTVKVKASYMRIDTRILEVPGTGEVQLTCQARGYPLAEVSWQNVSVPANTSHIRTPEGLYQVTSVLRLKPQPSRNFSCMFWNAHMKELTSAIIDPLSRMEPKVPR
# T9: PD-1Ig (Mus musculus, UniProt Q02242)
# T9 construct: Ig fusion protein purchased from R&D systems; also called mouse PD-1Ig fusion protein
# T9 sequence (fusion protein, looked up): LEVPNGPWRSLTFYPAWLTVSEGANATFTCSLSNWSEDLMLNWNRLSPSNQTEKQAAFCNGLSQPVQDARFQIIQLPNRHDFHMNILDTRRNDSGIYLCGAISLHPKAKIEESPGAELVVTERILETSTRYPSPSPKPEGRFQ
# B1: B7-DC (ligand, Mus musculus, UniProt Q9WUL5 20-247, looked up)
# membrane protein: LFTVTAPKEVYTVDVGSSVSLECDFDRRECTELEGIRASLQKVENDTSLQSERATLLEEQLPLGKALFHIPSVQVRDSGQYRCLVICGAAWDYKYLTVKVKASYMRIDTRILEVPGTGEVQLTCQARGYPLAEVSWQNVSVPANTSHIRTPEGLYQVTSVLRLKPQPSRNFSCMFWNAHMKELTSAIIDPLSRMEPKVPRTWPLHVFIPACTIALIFLAIVIIQRKRI
# B2: B7-DCIg (Fc fusion, Homo sapiens, UniProt Q9BQ51 20-219, looked up)
# fusion protein: LFTVTVPKELYIIEHGSNVTLECNFDTGSHVNLGAITASLQKVENDTSPHRERATLLEEQLPLGKASFHIPQVQVRDEGQYQCIIIYGVAWDYKYLTLKVKASYRKINTHILKVPETDEVELTCQATGYPLAEVSWPNVSVPANTSHSRTPEGLYQVTSVLRLKPPPGRNFSCVFWNTHVRELTLASIDLQSQMEPRTHP
# notes: Ig fusion protein purchased from R&D systems; also called human B7-DCIg fusion protein
# B3: B7-1 (ligand)
# chain: VDEQLSKSVKDKVLLPCRYNSPHEDESEDRIYWQKHDKVVLSVIAGKLKVWPEYKNRTLYDNTTYSLIILGLVLSDRGTYSCVVQKKERGTYEVKHLALVKLSIKADFSTPNITESGNPSADTKRITCFASGGFPKPRFSWLENGRELPGINTTISQDPESELYTISSQLDFNTTRNHTIKCLIKYGDAHVSEDFTWEKPPEDPPDSKNTLVLFGAGFGAVITVVVIVVIIKCFCKHRSCFRRNEASRETNNSLTFGPEEALAEQTVFL
# B4: B7-2 (ligand)
# chain: VSVETQAYFNGTAYLPCPFTKAQNISLSELVVFWQDQQKLVLYEHYLGTEKLDSVNAKYLGRTSFDRNNWTLRLHNVQIKDMGSYDCFIQKKPPTGSIILQQTLTELSVIANFSEPEIKLAQNVTGNSGINLTCTSKQGHPKPKKMYFLITNSTNEYGDNMQISQDNVTELFSISNSLSLSFPDGVWHMTVVCVLETESMKISSKPLNFTQEFPSPQTYWKEITASVTVALLLVMLLIIVCHKKPNQPSRPSNTASKLERDSNADRETINLKELEPQIASAKPNAE
# What was measured:
# [1] = target: human B7-H2, full length, expressed on cells (B7-H2+293T cells) (human) (UniProt O75144); experiment: cell-based or functional assay
# B7-H2Ig = target: T1, B7-H2Ig; experiment: CDS well image, 293T cells transfected with the mouse gene, stained with the mouse fusion protein
# [2] = target: T2, human B7-H2, full length, expressed on …; experiment: CDS well image, 293T cells transfected with the human gene, stained with the human fusion protein
# [3] = target: T10, human B7-H1 expressed on 293T cells (human, UniProt Q9NZQ7 19-290); experiment: as above
# T10 construct: whole, on cells
# [4] = target: T3, human B7-DC expressed on 293T cells; experiment: as above
# [5] = target: T4, human B7-2 (CD86, B70) expressed on …; experiment: as above
# [6] = target: T11, human CD28, full length, expressed on cells (CD28+293T cells) (human, UniProt P10747 19-220); experiment: as above
# T11 construct: This id also stands for CD28 on purified human T cells in the functional rows; also called CD28+ cells
# [7] = target: T5, human B7-1 (CD80) expressed on 293T …; experiment: as above
# [8] = target: T6, mouse CD28Ig fusion protein; experiment: CDS well image, 293T cells transfected with the mouse gene, stained with the mouse fusion protein
# ICOSIg = target: T7, ICOSIg; experiment: as above
# B7-DCIg = target: T8, B7-DCIg; experiment: as above
# B7-H1Ig = target: T12, B7-H1Ig (Mus musculus, UniProt Q9EP73); experiment: as above
# T12 construct: Ig fusion protein purchased from R&D systems; also called mouse B7-H1Ig fusion protein
# PD-1Ig = target: T9, PD-1Ig; experiment: as above
# [9] = target: T13, mouse CTLA-4Ig fusion protein (mouse, UniProt P09793 36-162); experiment: as above
# T13 construct: Bought from R&D Systems; Ig (Fc) part not given
# T12 sequence (Q9EP73 19-238 limits assumed): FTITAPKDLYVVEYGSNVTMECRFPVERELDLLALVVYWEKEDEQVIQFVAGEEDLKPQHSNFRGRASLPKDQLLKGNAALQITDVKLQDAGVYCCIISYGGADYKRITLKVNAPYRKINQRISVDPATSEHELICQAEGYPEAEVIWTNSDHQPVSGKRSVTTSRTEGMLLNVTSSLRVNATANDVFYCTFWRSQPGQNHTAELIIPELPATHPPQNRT
# T11 sequence (P10747 19-220): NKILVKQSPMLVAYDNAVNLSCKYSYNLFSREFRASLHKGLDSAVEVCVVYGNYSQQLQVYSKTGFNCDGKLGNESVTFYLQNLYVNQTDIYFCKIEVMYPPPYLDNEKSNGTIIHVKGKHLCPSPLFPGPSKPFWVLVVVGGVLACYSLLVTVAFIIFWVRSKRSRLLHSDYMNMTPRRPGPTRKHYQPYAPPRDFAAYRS
# T10 sequence (Q9NZQ7 19-290): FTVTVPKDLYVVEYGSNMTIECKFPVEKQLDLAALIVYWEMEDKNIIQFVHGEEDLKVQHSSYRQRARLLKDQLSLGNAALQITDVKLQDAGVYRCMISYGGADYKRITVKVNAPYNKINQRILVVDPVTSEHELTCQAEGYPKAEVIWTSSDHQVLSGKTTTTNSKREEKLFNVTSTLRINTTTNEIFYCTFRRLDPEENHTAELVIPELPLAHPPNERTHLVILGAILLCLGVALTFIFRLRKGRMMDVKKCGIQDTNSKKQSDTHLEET
Molecule,binding result (B7-H2Ig),binding result [8],binding result (ICOSIg),binding result (B7-DCIg),binding result (B7-H1Ig),binding result (PD-1Ig),binding result [9],also measured
mouse anti-human B7-H2 mAb 9F.8A4 (antibody),,,,,,,,tetanus toxoid-elicited IFNγ production of memory T cells; inhibition [1]: > 90%; tetanus toxoid-elicited proliferation of memory T cells; inhibition [1]: > 50%
B1,no binding,,,,,,,
B2,,,,,,,,binding result [2]: no binding; binding result [3]: no binding; binding result [4]: no binding; binding result [5]: no binding; binding result [6]: no binding; binding result [7]: no binding
B3,no binding,binds,no binding,no binding,binds,no binding,binds,
B4,no binding,binds,no binding,no binding,no binding,no binding,binds,
